In paper PMC6200739 one finds stoichiometry N data, which are given here for 1 substance.

By stoichiometry N is commonly meant the number of molecules, sites or subunits per partner or assembly.

Experiment [1] concerns the target Flag-tagged LDHA containing a nuclear localization signal peptide. The experiment can be described thus: cross-linking.
The target is the same in experiment [2]. The experiment can be described thus: SEC.

As to “Flag-tagged LDHA containing a nuclear localization signal peptide (enzyme)”, the stoichiometry N in experiment [1] and in experiment [2] was 2 throughout.
